The text below walks through data of patent US7022673B2, “Method for increasing the serum half-life of a biologically active molecule” (Chiron Corporation, priority 1998, dated 2006).

The conditions of data set [1]: relative to native protein; cited from earlier work.
The nature of data set [2]: Serum half-life after intravenous injection into mice. It counts as in vivo. To be noted: for serum half-life: mice, intravenous injection. As for the experimental part: uPA1-48 was produced in yeast, purified and concentrated into PBS. When produced in yeast, uPA1-48 lacks a fucosylation which is present when the protein is expressed in mammalian cells. The purified protein was injected intravenously into mice. Blood samples were collected at various time points, and the amount of uPA1-48 present in each sample was determined.
Pharmaceutical preparations comprising the conjugates of uPA1-48 and PEG were injected intravenously into mice. Blood samples were collected at various time points, and the amount of conjugate present in the blood was determined for each time point.

The next data set has as its target uPAR (Homo sapiens, UniProt Q03405). Description: uPAR receptor binding activity (method of Goodson et al.). To be noted: for IC50: uPAR receptor binding.
In data set [3] the test system is PC-3 mm2 cells (human prostate carcinoma). The data set is described as follows: Human prostate carcinoma PC-3 mm2 orthotopic tumor growth in nude mice. Format: in vivo. Conditions: 300 μg SC twice per week for 3 weeks, vs vehicle control. The procedure:
The prostates of 18 nude mice were injected with 1×10^5 PC-3 mm2 cells (human prostate carcinoma) on day 0. The mice were divided into two groups of nine mice each, and treatment was initiated on day 3 and continued for 3 weeks. Twice per week, the mice of group 1 received 300 μg PEG hu1-48 (20 kD PEG) by subcutaneous administration, and the mice of group 2 received vehicle only by subcutaneous administration. Three weeks after the implantation of the human prostate carcinoma cells, the prostates of the mice were excised and weighed to determine effects of treatment on the primary tumor growth.

Data set [4] concerns MDA MB231 cells (human breast carcinoma). The data set is described as follows: Breast carcinoma MDA MB231 subcutaneous tumor growth in NOD/Ltz mice. It counts as in vivo. To be noted: for tumor growth reduced: vs vehicle control at 9 weeks, p=0.05. As for the experimental part: Thirty NOD/Ltz mice were injected subcutaneously with 2×10^6 MDA MB231 cells (human breast carcinoma) on day 0. The mice were divided into three groups of 10 mice each, and the treatment of the three groups of mice began on day 1. Twice every week, group 1 was subcutaneously injected with 30 μg PEG hu1-48 (20 kD PEG), group 2 was subcutaneously injected with 300 μg PEG hu1-48 (20 kD PEG), and group 3 was subcutaneously injected with the vehicle (PBS). Treatment was continued for 9 weeks. The primary tumor volume (mm^3) was measured three times per week for 12 weeks, and the experiment was terminated when mean tumor volume in vehicle control group exceeded 2000 mm^3.

For data set [5], the system named is KM12 L4A cells (human colorectal adenocarcinoma). The data set is described as follows: Colon cancer tumor growth and liver metastases, intrasplenic KM12 L4A in nude mice. It counts as in vivo. To be noted: 250 μg BID SC five times per week, 4 weeks. As for the experimental part:
Twenty 10 week old Nude male mice were injected intrasplenically with 1×10^6 KM12 L4A cells (human colorectal adenocarcinoma) on day 0. The mice were divided into two groups, and treatment was initiated on day 1 post-implantation and continued for 4 weeks. Group 1, consisting of 10 mice, were subcutaneously injected five times per week with PEG hu1-48 (20 kD PEG) and 250 μg BID while group 2 mice acted as the control and were injected with vehicle only. The animals were sacrificed all 5 weeks, and the spleens of the animals from each group were weighed to determine primary tumor burden (FIG. 4A). The livers were weighed to determine metastatic tumor burden, and were scored by histological examination for incidence of metastases (FIG. 4B). […] For the purposes of comparison, the average splenic weight for mice in this age group is about 240 mg.

A short description of data set [6]: Pharmacokinetics after single IV bolus or SC dose in cynomologous monkeys (active protein measured by receptor binding activity). Format: in vivo. To be noted: for t1/2: functional half-life. The procedure: As above, blood samples were collected at various time points, and the amount of conjugate present in the blood was determined for each time point. The method measures the receptor binding activity instead of just the total protein present; thus the amount of protein measured as a function of time represents the active protein, and the measured half-life represents functional half-life. The data is shown in Table 1, and a graph illustrating plasma disposition of PEG hu1-48 over time is included in FIG. 1.

Data set [7] has as its system KM12 L4A cells (human colorectal carcinoma cancer with high metastatic potential). The data set is described as follows: Liver metastases in post-resection colorectal carcinoma model (KM12 L4A, spleen removed). Format: in vivo, mice. Conditions: 1000 μg SC twice per week, vs vehicle. The procedure:
Thirty male Nu/Nu mice were injected intrasplenically with 0.5×10^6 KM12 L4A cells (human colorectal carcinoma cancer with high metastatic potential), and the spleens of all the mice were removed 3 days after implantation of the KM12 L4A cells. The mice were divided into two treatment groups, and treatment was began 6 days after implantation. The first group of 15 mice received subcutaneous administrations of 1000 μg PEG hu1-48(20 kD PEG) twice per week, and the second group of 15 mice received saline vehicle only and served as the control group. The experiment was terminated 27 days after implantation of the KM12 L4A cells, and the weight of the livers were determined and histologically scored for metastatic foci.

No end group written: not given here.

uPAR, sequence (Q03405 23-335): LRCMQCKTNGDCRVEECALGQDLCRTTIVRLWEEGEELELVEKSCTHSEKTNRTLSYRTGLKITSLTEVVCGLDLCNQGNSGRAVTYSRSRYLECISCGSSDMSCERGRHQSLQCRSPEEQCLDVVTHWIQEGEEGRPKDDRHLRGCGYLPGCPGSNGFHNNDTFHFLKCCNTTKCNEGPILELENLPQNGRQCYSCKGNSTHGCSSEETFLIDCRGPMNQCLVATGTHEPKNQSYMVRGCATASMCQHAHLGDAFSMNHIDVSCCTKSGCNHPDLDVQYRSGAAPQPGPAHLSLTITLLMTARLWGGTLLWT

On to “PEG20 kD to IL-1ra: literature conjugate of PEG20 kD with IL-1ra (Gaertner and Offord 1996)”, for which the “change in half-life on conjugation to PEG20 kD” value in data set [1] was “almost seven-fold increase”.
For “uPA1-48/PEG25 kD conjugate: uPA1-48 N-terminal aldehyde coupled to PEG hydrazide of nominal average molecular weight 25 kD ({PEG 25 kDa hydrazone}-SNELHQVPSNCDCLNGGTCVSNKYFSNIHWCNCPKKFGGQHCEIDKSK; cysteine pairing not given here; UniProt P00749 21-68, looked up, fragment)”, the serum half-life in data set [2] was 4.62 h.
Still for that read-out and setting: the result for “uPA1-48/PEG5 kD conjugate: uPA1-48 N-terminal aldehyde coupled to PEG hydrazide of nominal average molecular weight 5 kD ({PEG 5 kDa hydrazone}-SNELHQVPSNCDCLNGGTCVSNKYFSNIHWCNCPKKFGGQHCEIDKSK; cysteine pairing not given here; UniProt P00749 21-68, looked up, fragment)” reads 0.733 h.
The substance “uPA1-48: catalytically inactive protein comprising the first 48 amino acids of human uPA (EGF-like domain), produced in yeast (SNELHQVPSNCDCLNGGTCVSNKYFSNIHWCNCPKKFGGQHCEIDKSK; UniProt P00749 21-68, looked up, fragment)” came in with an IC50 in the data set with uPAR of 0.25 nM. Also, the serum half-life entry in data set [2] is “approximately 10 minutes”.
As to “IL-8/PEG20 kD conjugate: literature conjugate of IL-8 with PEG20 kD (Gaertner and Offord 1996)”, the “change in half-life on conjugation to PEG20 kD” value in data set [1] is “no change”.
In data set [2], “uPA1-48 /PEG3.4 kD conjugate: uPA1-48 N-terminal aldehyde coupled to PEG hydrazide of nominal average molecular weight 3.4 kD ({PEG 3.4 kDa hydrazone}-SNELHQVPSNCDCLNGGTCVSNKYFSNIHWCNCPKKFGGQHCEIDKSK; cysteine pairing not given here; UniProt P00749 21-68, looked up, fragment)” showed a serum half-life of 0.2 h.
On to “uPA1-48/PEG20 kD conjugate: uPA1-48 N-terminal aldehyde coupled to PEG hydrazide of nominal average molecular weight 20 kD ({PEG 20 kDa hydrazone}-SNELHQVPSNCDCLNGGTCVSNKYFSNIHWCNCPKKFGGQHCEIDKSK; cysteine pairing not given here; UniProt P00749 21-68, looked up, fragment)”, for which the “reduction in primary tumor growth (prostate weight)” value in data set [3] is listed as ~57%. In the data set with uPAR (relative to uPA1-48, uPAR binding), the “decrease in biological activity” value is given as “four-fold”. The IC50 in the data set with uPAR stood at 1 nM. Also, the tumor growth reduced in data set [4] (30 μg SC twice every week) came out at 77%. The substance further returned a tumor growth reduced in data set [4] (300 μg SC twice every week) of 98%. Moreover, the “effect after treatment was stopped (day 63)” value in data set [4] (300 μg group observed additional 3 weeks, tumors evident by day 84) is “cytostatic effect”. Moreover, the “incidence of liver metastases” value in data set [5] (6 control mice had metastases, p<0.005) is recorded as “no observed metastases”. In addition, the “mice with visible tumors in the spleen” value in data set [5] (of 10 mice) is 7 mice. This substance yielded an average spleen weight in data set [5] (±113, control 641 mg, normal about 240 mg) of 269 mg. In addition, the serum half-life in data set [2] was 2.17 h. For the same substance, in data set [2] (relative to unmodified uPA1-48, mice), the “increase in serum half-life” value was found to be 13 fold. In data set [6] (monkey F67-344F, IV, 10 mg/kg), this substance displayed a t1/2 of 6.9 h, an AUC of 3297918 nM·min, a CL of 0.6 mL/min/kg and a Cmax of 19.143 µM. Besides, in data set [6] (monkey F67-344F, IV, 10 mg/kg), the F stood at 100%, the MRT came to 7.4 h, the Tmax was determined as 0 h and the Vss turned out to be 0.252 L/kg. In data set [6] (monkey F67-344F, SC, 10 mg/kg), this substance showed a t1/2 of 23 h, an AUC of 3803604 nM·min, a Cmax of 2.596 µM and an F of 115%. Moreover, in data set [6] (monkey F67-344F, SC, 10 mg/kg), the MRT was determined as 31 h and the Tmax worked out at 8 h. In data set [6] (monkey F7238F, IV, 10 mg/kg), this substance returned a t1/2 of 7.6 h, an AUC of 3002085 nM·min, a CL of 0.6 mL/min/kg and a peak concentration (Cmax) of 30.564 µM. In data set [6] (monkey F7238F, IV, 10 mg/kg), the F was 100%, the MRT was determined as 6.6 h, the time of peak concentration (Tmax) was 0 h and the Vss is reported as 0.249 L/kg. Besides, in data set [6] (monkey F7238F, SC, 10 mg/kg), the t1/2 worked out at 26 h, the AUC came out at 3057502 nM·min, the Cmax was 2.155 µM and the F is 101%. Further, in data set [6] (monkey F7238F, SC, 10 mg/kg), the MRT amounted to 28 h and the Tmax stood at 4 h. Moreover, in data set [6] (monkey F7281F, IV, 8.8 mg/kg), the t1/2 worked out at 6.4 h, the AUC is 1987996 nM·min, the CL came out at 0.8 mL/min/kg and the Cmax was 19.199 µM. Further, in data set [6] (monkey F7281F, IV, 8.8 mg/kg), the F was 100%, the MRT amounted to 5.1 h, the Tmax was determined as 0 h and the Vss is on record as 0.255 L/kg. In addition, in data set [6] (monkey F7281F, SC, 10 mg/kg), the t1/2 is 14 h, the AUC was determined as 2337888 nM·min, the Cmax turned out to be 1.126 µM and the F was determined as 103%. In addition, in data set [6] (monkey F7281F, SC, 10 mg/kg), the mean residence time (MRT) is 31 h and the Tmax worked out at 8 h. The “overall liver tumor burden” value in data set [7] (day 27) is listed as “trend toward a reduction”. In addition, the “metastases to the liver” value in data set [7] (p value <0.05, day 27) was “significantly reduced metastases to the liver”.
The substance “uPA1-48/PEG50 kD dimeric conjugate: a uPA1-48 molecule conjugated at each end of PEG50 kD (SNELHQVPSNCDCLNGGTCVSNKYFSNIHWCNCPKKFGGQHCEIDKSK; cysteine pairing not given here; also: dimer: one uPA1-48 conjugated at each end of PEG 50 kDa, site not given here; UniProt P00749 21-68, looked up, fragment)” had a serum half-life in data set [2] of 4.8 h.
